Reference: US10501734B2, “Compositions and methods of use thereof for making polypeptides with many instances of nonstandard amino acids” (Yale University, priority 2014, dated 2019)
Numbering of substitutions follows the chain as printed. Names may count otherwise.

B1: pAcFRS.1.t1: pAcFRS variant A167D, R257G, SEQ ID NO: 5 (protein)
chain: MDEFEMIKRNTSEIISEEELREVLKKDEKSALIGFEPSGKIHLGHYLQIKKMIDLQNAGFDIIILLADLHAYLNQKGELDEIRKIGDYNKKVFEAMGLKAKYVYGSEFQLDKDYTLNVYRLALKTTLKRARRSMELIAREDENPKVAEVIYPIMQVNGCHYRGVDVDVGGMEQRKIHMLARELLPKKVVCIHNPVLTGLDGEGKMSSSKGNFIAVDDSPEEIRAKIKKAYCPAGVVEGNPIMEIAKYFLEYPLTIKGPEKFGGDLTVNSYEELESLFKNKELHPMRLKNAVAEELIKILEPIRKRL
B2: pAzFRS.2.t1: pAcFRS variant E107T, F108Y, Q109M, R257G, SEQ ID NO: 14 (protein)
chain: B1 chain with E107T, F108Y, Q109M, D167A
B3: pAcFRS.2.t1: pAcFRS variant L65V, A167D, R257G, SEQ ID NO: 8 (protein)
chain: B1 chain with L65V
B4: pAcFRS: progenitor M. jannaschii based p-acetyl-L-phenylalanine AARS, SEQ ID NO:1 (Young, et al., 2010) (protein, listed as Methanocaldococcus jannaschii)
chain: B1 chain with D167A, G257R
B5: pAzFRS.1.t1: pAcFRS variant D158V, I159M, L162D, A167Y, R257G, SEQ ID NO: 11 (protein)
chain: MDEFEMIKRNTSEIISEEELREVLKKDEKSALIGFEPSGKIHLGHYLQIKKMIDLQNAGFDIIILLADLHAYLNQKGELDEIRKIGDYNKKVFEAMGLKAKYVYGSEFQLDKDYTLNVYRLALKTTLKRARRSMELIAREDENPKVAEVIYPIMQVNVMHYDGVDVYVGGMEQRKIHMLARELLPKKVVCIHNPVLTGLDGEGKMSSSKGNFIAVDDSPEEIRAKIKKAYCPAGVVEGNPIMMEIAKYFLEYPLTIKGPEKFGGDLTVNSYEELESLFKNKELHPMRLKNAVAEELIKILEPIRKRL

Tests used:
ELP(30TAG)-GFP [1] = experiment: ELP expression and purification, yield of purified ELP(30TAG)-GFP; type: cell-based, E. coli
Experimental: Before batch expression, starter cultures (2 mL) of 2×YT media supplemented with 30 μg/mL kanamayacin and 20 μg/mL chloramphenicol were inoculated with transformed cells from a fresh agar plate or from stocks stored at −80° C., and incubated overnight at 34° C. while shaking at 250 rpm. Expression cultures (250 ml flasks containing 50 ml of 2×YT media, antibiotics, 0.2% arabinose and 1 mM of the nsAA) were inoculated with 0.5 ml of the starter culture and incubated at 34° C. for 4 h and then reporter protein expression was induced with 60 μg/mL anhydrotetracyclin.
Cells were harvested 24 h after inoculation by centrifugation at 4,000 g for 15 min at 4° C. The cell pellet was resuspended by vortex in ˜1.5 mL PBS buffer and stored at −80° C. or immediately purified. For purification, resuspended pellets were lysed by ultrasonic disruption (9 cycles of 10 s sonication separated by 40 s intervals). Poly(ethyleneimine) (0.2 mL of 10% solution) was added to each lysed suspension before centrifugation at 15,000 g for 3 min to separate cell debris from the soluble cell lysate.
All ELP constructs were purified by a modified Inverse Transition Cycling (ITC) protocol consisting of multiple “hot” and “cold” spins using sodium citrate to trigger the phase transition. Before purification, the soluble cell lysate was incubated for 1-2 min at ˜65° C. to denature native E. coli proteins. For “hot” spins, the ELP phase transition was triggered by adding sodium citrate to the cell lysate or the product of a previous cycle of ITC at a final concentration of ˜0.5 M. The solutions were then centrifuged at 14,000 g for 3 min and the pellets were resuspended in PBS, followed by a 3-5 min “cold” spin performed without addition of sodium citrate to remove denatured contaminant. Additional rounds of ITC were carried out as needed until sufficient purification was achieved.
Protein concentration was calculated by measuring the OD280 of purified protein stocks according to the following extinction coefficients for ELP(30TAG)-GFP.

ELP(30TAG)-GFP [2] = experiment: Intact cell GFP fluorescence, ELP(30TAG)-GFP production; type: cell-based, E. coli; details: plasmid-based OTSs; panel of 14 nsAAs
Experimental: Liquid cell cultures of strains harboring chromosomally integrated OTSs and GFP reporter plasmids were inoculated from frozen stocks and grown to confluence overnight. Cultures were then inoculated at 1:20 dilution in LBmin media supplemented with 30 μg/ml kanamycin. Strains were inoculated by addition of 1:20 confluent cell culture (grown overnight) and allowed to grow at 34° C. to an OD600 of 0.5-0.8 in a shaking plate incubator at 650 r.p.m (˜3 h). AARS expression was then induced by the addition of 0.2% arabinose, GFP expression was induced by the addition of 60 ng/ul anhydrotetracycline, and the appropriate nsAA was added to a concentration of 1 mM. Cells were incubated at 34° C. for an additional 16 h. Liquid cell cultures of strains harboring plasmid-based OTSs and GFP or ELP-GFP reporter plasmids were inoculated from frozen stocks and grown to confluence overnight. Cultures were then inoculated at 1:20 dilution in 2×YT media supplemented with 30 μg/ml kanamycin and 20 μg/ml chloramphenicol. […] Cells were allowed to grow at 34° C. to an OD600 of 0.5-0.8 in a shaking plate incubator at 650 r.p.m (˜3 h), reporter protein expression was then induced by the addition of 60 ng/ul anhydrotetracycline, and cells were incubated at 34° C. for an additional 16 h.
For 384 well plate-based assays, fluorescence and OD600 were directly measured following expression. For 96 well plate-based assays, cells were centrifuged at 4,000 g for 4 min. Supernatant medium was removed and cells were resuspended in PBS. This process was repeated twice with PBS. GFP fluorescence was measured on a Biotek spectrophotometric plate reader using excitation and emission wavelengths of 395 and 509 nm, respectively). Fluorescence signals were normalized by dividing the fluorescence counts by the OD600 reading. The nsAAs used in this study were purchased from Sigma-Aldrich (St. Louis, Mo.), Chemlmpex (Wood Dale, Ill.), and Bachem (Torrance, Calif.). Solutions of nsAAs (50 mM) were made in water or 50 mM NaOH; these stock solutions were diluted 50- or 100-fold (to 1 mM final concentration) into medium used for bacterial growth.

| Molecule | Yield of purified ELP(30TAG)-GFP (ELP(30TAG)-GFP [1]; nsAA pAcF, GRO) [mg/L] | nsAA specificity in ELP(30TAG)-GFP production (ELP(30TAG)-GFP [2]) | also measured |
| --- | --- | --- | --- |
| B1 | 52.6 ± 6.3 | – | – |
| B2 | 39.05 ± 3.4 | – | Yield of purified ELP(30TAG)-GFP (ELP(30TAG)-GFP [1]; nsAA 4ClF, GRO): 48.2 ± 11.2 mg/L; Yield of purified ELP(30TAG)-GFP (ELP(30TAG)-GFP [1]; nsAA pAzF, GRO): 41.9 ± 6^ mg/L |
| B3 | – | for pAcF over pAzF decreases when expressed on a multi-copy plasmid | Yield of purified ELP(30TAG)-GFP (ELP(30TAG)-GFP [1]; nsAA 4CF3F, GRO): 53 ± 5.4 mg/L; Yield of purified ELP(30TAG)-GFP (ELP(30TAG)-GFP [1]; nsAA BuY, GRO): 64.5 ± 9.7 mg/L |
| B4 | 10.5 ± 5.5 | – | Yield of purified ELP(30TAG)-GFP (ELP(30TAG)-GFP [1]; nsAA pAcF, Non-recoded E. coli): 3.04 ± 1.4 mg/L |
| B5 | – | maintains stringent specificity for pAzF | – |
